Measured values reported in patent US20180305427A1 (ACCELERON PHARMA, published 2018).

T1: myostatin (R&D Systems) (UniProt O14793 267-375)
T1 sequence (looked up): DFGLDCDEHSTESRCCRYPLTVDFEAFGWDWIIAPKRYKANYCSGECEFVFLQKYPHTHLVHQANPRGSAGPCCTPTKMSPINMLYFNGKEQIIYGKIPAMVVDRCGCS


What was measured:
myostatin (R&D Systems) [1] = biological target: myostatin (R&D Systems) (UniProt O14793); assay: cell-based or functional assay
myostatin (R&D Systems) [2] = biological target: T1, myostatin (R&D Systems); assay: cell-based or functional assay

IC50 (nM), inhibition of myostatin signaling, pGL3(CAGA)12 reporter gene assay in A204 cells (myostatin (R&D Systems) [1])	IC50 (nM), inhibition of myostatin signaling, pGL3(CAGA)12 reporter gene assay in A204 cells (myostatin (R&D Systems) [2])	Molecule
2.9 nM		Single-arm WFIKKN2-G1Fc (from UniProt P0DOX5 209-449) (Fc fusion)
> 100 nM		Dual-arm WFIKKN2-G1Fc (from UniProt Q8TEU8 35-576) (Fc fusion)
	1.4 nM	Single-chain WFIKKN2-His6 (other) LPPIRYSHAGICPNDMNPNLWVDAQSTCRRECETDQECETYEKCCPNVCGTKSCVAARYMDVKGKKGPVGMPKEATCDHFMCLQQGSECDIWDGQPVCKCKDRCEKEPSFTCASDGLTYYNRCYMDAEACSKGITLAVVTCRYHFTWPNTSPPPPETTMHPTTASPETPELDMAAPALLNNPVHQSVTMGETVSFLCDVVGRPRPEITWEKQLEDRENVVMRPNHVRGNVVVTNIAQLVIYNAQLQDAGIYTCTARNVAGVLRADFPLSVVRGHQAAATSESSPNGTAFPAAECLKPPDSEDCGEEQTRWHFDAQANNCLTFTFGHCHRNLNHFETYEACMLACMSGPLAACSLPALQGPCKAYAPRWAYNSQTGQCQSFVYGGCEGNGNNFESREACEESCPFPRGNQRCRACKPRQKLVTSFCRSDFVILGRVSELTEEPDSGRALVTVDEVLKDEKMGLKFLGQEPLEVTLLHVDWACPCPNVTVSEMPLIIMGEVDGGMAMLRPDSFVGASSARRVRKLREVMHKKTCDVLKEFLGLHHHHHHH
